From patent publication US20070087001A1 (CENTER FOR MOLECULAR MEDICINE AND IMMUNOLOGY, published 2007)
Ends that are not written are not given here.

How the values were obtained:
[1] = molecular target: T1, Recombinant human placenta growth factor-2 (PlGF-2) (human) (UniProt P49763); test: cell-based or functional assay
T1 sequence (looked up): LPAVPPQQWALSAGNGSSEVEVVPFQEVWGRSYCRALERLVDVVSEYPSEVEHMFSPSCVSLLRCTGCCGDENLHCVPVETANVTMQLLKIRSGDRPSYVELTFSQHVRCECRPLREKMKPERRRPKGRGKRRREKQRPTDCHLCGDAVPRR

[2] = molecular target: T1, Recombinant human placenta growth factor-2 (PlGF-2) (human); test: phage ELISA on PlGF-coated plates, anti-M13-HRP detection; phage library background 0.003
[3] = molecular target: T2, Recombinant human VEGF 165 (human, UniProt P15692-4 27-191); test: ELISA, FLAG-tagged free peptide on VEGF165-coated wells, anti-FLAG detection
T2 construct: Bought protein
T2 sequence (P15692 other isoform, or with tags, fused parts or gaps limits assumed): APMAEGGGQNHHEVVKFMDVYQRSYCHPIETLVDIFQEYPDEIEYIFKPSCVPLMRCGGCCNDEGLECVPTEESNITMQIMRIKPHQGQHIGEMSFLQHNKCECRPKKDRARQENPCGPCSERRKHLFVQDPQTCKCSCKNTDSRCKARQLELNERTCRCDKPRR

[4] = molecular target: T3, Recombinant human Flt-1 fusion protein (human, UniProt P17948 27-756); test: ELISA-based binding assay
T3 construct: Bought fusion protein coated on plates at 10 µg/ml; also called VEGFR1; VEGF receptor I
T3 sequence (P17948 27-756): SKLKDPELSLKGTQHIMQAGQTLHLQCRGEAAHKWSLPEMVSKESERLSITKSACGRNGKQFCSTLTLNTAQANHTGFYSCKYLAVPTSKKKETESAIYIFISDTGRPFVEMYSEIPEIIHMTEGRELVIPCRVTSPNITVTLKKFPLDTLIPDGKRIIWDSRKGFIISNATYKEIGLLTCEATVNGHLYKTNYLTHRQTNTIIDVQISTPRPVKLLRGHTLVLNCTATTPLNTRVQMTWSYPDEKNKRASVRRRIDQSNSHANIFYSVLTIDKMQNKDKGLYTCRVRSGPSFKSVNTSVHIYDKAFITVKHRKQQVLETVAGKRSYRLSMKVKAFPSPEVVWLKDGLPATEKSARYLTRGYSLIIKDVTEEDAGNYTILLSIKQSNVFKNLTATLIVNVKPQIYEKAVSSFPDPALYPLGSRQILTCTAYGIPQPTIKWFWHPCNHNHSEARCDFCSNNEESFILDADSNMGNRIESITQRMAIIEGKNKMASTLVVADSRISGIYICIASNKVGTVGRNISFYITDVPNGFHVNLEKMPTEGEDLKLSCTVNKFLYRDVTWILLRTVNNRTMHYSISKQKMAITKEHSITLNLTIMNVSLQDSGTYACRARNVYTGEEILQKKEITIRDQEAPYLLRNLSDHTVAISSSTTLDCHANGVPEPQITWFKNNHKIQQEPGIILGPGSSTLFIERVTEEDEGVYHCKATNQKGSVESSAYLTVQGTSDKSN

[5] = molecular target: T4, Recombinant human placenta growth factor-2 (PlGF-2) (human, UniProt P49763-3 19-170, limits assumed); test: cell-based or functional assay
T4 sequence (looked up): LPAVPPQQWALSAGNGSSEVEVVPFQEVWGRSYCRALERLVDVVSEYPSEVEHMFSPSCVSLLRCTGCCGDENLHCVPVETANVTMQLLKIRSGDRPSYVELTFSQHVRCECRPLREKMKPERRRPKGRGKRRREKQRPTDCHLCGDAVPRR

[6] = molecular target: T4, Recombinant human placenta growth …; test: cell-based or functional assay; remark: listed apart in the source
[7] = molecular target: T2, Recombinant human VEGF 165; test: ELISA-based binding assay
[8] = molecular target: T3, Recombinant human Flt-1 fusion protein; test: ELISA, free FLAG-tagged peptide on Flt-1-coated wells
[9] = molecular target: T4, Recombinant human placenta growth …; test: ELISA, free FLAG-tagged peptide on PlGF-coated wells

## Human recombinant soluble Flt-1 (sFlt-1) (from UniProt P17948 27-756) (receptor)
[1]
  Block of the stimulatory effect of PlGF on motility, MCF-7: 67%
  Block of the stimulatory effect of PlGF on motility, MDA-MB-231: 55%
  Migrating cells (wound-healing assay, MCF-7, PlGF 2 nM + Flt-1 2 nM) (cells/100x field): 10.4
  Migrating cells (wound-healing assay, MDA-MB-231, PlGF 2 nM + Flt-1 2 nM) (cells/100x field): 19.1
  Migrating cells (wound-healing assay, MDA-MB-468, PlGF 2 nM + Flt-1 2 nM) (cells/100x field): 7.8
  Relative activity (wound-healing assay, MCF-7) (relative to PlGF-only = 100): 47
  Relative activity (wound-healing assay, MDA-MB-231) (relative to PlGF-only = 100): 45
  Relative activity (wound-healing assay, MDA-MB-468) (relative to PlGF-only = 100): 53

B1: Phage BP1 (BP1 peptide displayed on M13 phage) (peptide, not shown: large carriers; small tags and cut ends)
peptide: SHRYRLAIQLHASDSSSSCV
modifications: also: displayed on M13 phage, fused to pIII coat protein, spacer and fusion end not given here
[2]
  absorbance (410 nm): 0.024 A410

B2: Peptide BP1 (Binding Peptide 1) synthesized with a linker and a C-terminal FLAG epitope (peptide, not shown: small tags and cut ends)
peptide: SHRYRLAIQLHASDSSSSCVDYKDDDDK
modifications: also: linker between peptide and FLAG epitope, sequence not given here
notes: detected by probing for FLAG
[3]
  A490: 0.299 A490
[4]
  fold over background: 10 fold over background

B3: Binding Peptide 1 (BP1), synthetic peptide (peptide)
peptide: SHRYRLAIQLHASDSSSSCV
[5]
  Average fold-change in invading cells vs untreated (MCF-7, PlGF 0.2 nM + BP1 2 µg/ml): 0.3 fold vs untreated
  Average fold-change in invading cells vs untreated (MDA-MB-231, PlGF 0.2 nM + BP1 2 µg/ml): 1.3 fold vs untreated
  Average fold-change in invading cells vs untreated (MDA-MB-468, PlGF 0.2 nM + BP1 2 µg/ml): 0.6 fold vs untreated
[6]
  Relative activity (wound-healing assay, MCF-7): 45 relative to PlGF-only = 100
  Relative activity (wound-healing assay, MDA-MB-231): 32 relative to PlGF-only = 100
  Relative activity (wound-healing assay, MDA-MB-468): 97 relative to PlGF-only = 100

B4: Control peptide CPA (BP1 with A substituted for the H, R and D residues) (peptide)
peptide: SAAYALAIQLAASASSSSCV
[5]
  Average fold-change in invading cells vs untreated (MCF-7, PlGF 0.2 nM + CPA 2 µg/ml): 1 fold vs untreated
  Average fold-change in invading cells vs untreated (MDA-MB-231, PlGF 0.2 nM + CPA 2 µg/ml): 4.9 fold vs untreated
  Average fold-change in invading cells vs untreated (MDA-MB-468, PlGF 0.2 nM + CPA 2 µg/ml): 1.2 fold vs untreated
[6]
  Relative activity (wound-healing assay, MDA-MB-231): 106 relative to PlGF-only = 100
  Relative activity (wound-healing assay, MDA-MB-468): 147 relative to PlGF-only = 100
[7]
  binding result: binds

B5: Peptide BP3 synthesized with a linker and a C-terminal FLAG epitope (peptide, not shown: small tags and cut ends)
peptide: QEAFNRLTSRMHDYKDDDDK
modifications: also: linker between peptide and FLAG epitope, sequence not given here
[8]
  binding result: no binding
[9]
  binding result: no binding (tested: 50 µM)

B6: Peptide BP4 synthesized with a linker and a C-terminal FLAG epitope (peptide, not shown: small tags and cut ends)
peptide: RMPYSEHSAPLGDYKDDDDK
modifications: also: linker between peptide and FLAG epitope, sequence not given here
[8]
  binding result: no binding
[9]
  binding result: no binding (tested: 50 µM)
